Measurements reported in patent publication EP4692114A1, “CALCITONIN ANALOGUE, AND DERIVATIVE THEREOF AND USE THEREOF” (Hangzhou Sciwind Biosciences Co., Ltd., priority 2023, dated 2024).
*1 amine or outer side, *2 acyl side, *3 side chain or, on linkers, in order; H or OH if unused. [ ]: non-standard residue; d: D form. The star is where a group is joined. C20 diacid = O=C(O)CCCCCCCCCCCCCCCCCCC(=O)*; C18 diacid = O=C(O)CCCCCCCCCCCCCCCCC(=O)*; γGlu = O=C(O)[C@H](CCC(=O)[*:2])N[*:1]; βAsp = O=C(O)[C@H](CC(=O)[*:2])N[*:1]; AEEA = NCCOCCOCC(=O)O

T1: human amylin receptor (AMY3) on CHO-K1/Gal5/AMY3 cells (human, UniProt P30988 25-474; O60896 24-148)
T1 sequence (looked up) 1: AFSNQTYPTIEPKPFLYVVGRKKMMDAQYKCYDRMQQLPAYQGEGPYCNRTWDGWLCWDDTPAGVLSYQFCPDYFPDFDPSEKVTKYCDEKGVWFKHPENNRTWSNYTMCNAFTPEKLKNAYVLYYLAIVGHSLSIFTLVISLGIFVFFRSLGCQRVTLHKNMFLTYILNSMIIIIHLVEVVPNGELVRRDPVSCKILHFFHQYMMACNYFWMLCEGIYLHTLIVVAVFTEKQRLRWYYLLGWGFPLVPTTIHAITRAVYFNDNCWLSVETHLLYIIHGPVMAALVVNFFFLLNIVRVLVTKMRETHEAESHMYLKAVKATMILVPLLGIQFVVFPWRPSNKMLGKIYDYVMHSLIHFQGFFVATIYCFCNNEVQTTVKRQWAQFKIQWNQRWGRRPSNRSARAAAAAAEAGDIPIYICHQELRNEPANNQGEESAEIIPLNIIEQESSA
T1 sequence (looked up) 2: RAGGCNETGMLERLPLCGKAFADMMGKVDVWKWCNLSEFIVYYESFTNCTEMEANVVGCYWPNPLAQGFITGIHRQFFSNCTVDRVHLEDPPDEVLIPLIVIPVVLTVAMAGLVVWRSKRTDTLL


Target: T1, human amylin receptor (AMY3) on …
Assay: cell-based or functional assay

Row | Binder | EC50/nM, CRE-luciferase in amylin receptor/CRE-luc CHO cells [nM]
1 | {C20 diacid-γGlu}-LSQLSTLVLGRLSQELHRLQDYPRTDVGSGSP-NH2 (SMILES CC(C)C[C@H](NC(=O)CC[C@H](NC(=O)CCCCCCCCCCCCCCCCCCC(=O)O)C(=O)O)C(=O)N[C@@H](CO)C(=O)N[C@@H](CCC(N)=O)C(=O)N[C@@H](CC(C)C)C(=O)N[C@@H](CO)C(=O)N[C@H](C(=O)N[C@@H](CC(C)C)C(=O)N[C@H](C(=O)N[C@@H](CC(C)C)C(=O)NCC(=O)N[C@@H](CCCNC(=N)N)C(=O)N[C@@H](CC(C)C)C(=O)N[C@@H](CO)C(=O)N[C@@H](CCC(N)=O)C(=O)N[C@@H](CCC(=O)O)C(=O)N[C@@H](CC(C)C)C(=O)N[C@@H](Cc1c[nH]cn1)C(=O)N[C@@H](CCCNC(=N)N)C(=O)N[C@@H](CC(C)C)C(=O)N[C@@H](CCC(N)=O)C(=O)N[C@@H](CC(=O)O)C(=O)N[C@@H](Cc1ccc(O)cc1)C(=O)N1CCC[C@H]1C(=O)N[C@@H](CCCNC(=N)N)C(=O)N[C@H](C(=O)N[C@@H](CC(=O)O)C(=O)N[C@H](C(=O)NCC(=O)N[C@@H](CO)C(=O)NCC(=O)N[C@@H](CO)C(=O)N1CCC[C@H]1C(N)=O)C(C)C)[C@@H](C)O)C(C)C)[C@@H](C)O) [calcitonin derivative M25] | 0.016
2 | {C20 diacid-γGlu}-ASQLSTAVLGRLSSELHRLQDYPRTDVGSGSP-NH2 (SMILES CC(C)C[C@H](NC(=O)[C@H](CCCNC(=N)N)NC(=O)CNC(=O)[C@H](CC(C)C)NC(=O)[C@@H](NC(=O)[C@H](C)NC(=O)[C@@H](NC(=O)[C@H](CO)NC(=O)[C@H](CC(C)C)NC(=O)[C@H](CCC(N)=O)NC(=O)[C@H](CO)NC(=O)[C@H](C)NC(=O)CC[C@H](NC(=O)CCCCCCCCCCCCCCCCCCC(=O)O)C(=O)O)[C@@H](C)O)C(C)C)C(=O)N[C@@H](CO)C(=O)N[C@@H](CO)C(=O)N[C@@H](CCC(=O)O)C(=O)N[C@@H](CC(C)C)C(=O)N[C@@H](Cc1c[nH]cn1)C(=O)N[C@@H](CCCNC(=N)N)C(=O)N[C@@H](CC(C)C)C(=O)N[C@@H](CCC(N)=O)C(=O)N[C@@H](CC(=O)O)C(=O)N[C@@H](Cc1ccc(O)cc1)C(=O)N1CCC[C@H]1C(=O)N[C@@H](CCCNC(=N)N)C(=O)N[C@H](C(=O)N[C@@H](CC(=O)O)C(=O)N[C@H](C(=O)NCC(=O)N[C@@H](CO)C(=O)NCC(=O)N[C@@H](CO)C(=O)N1CCC[C@H]1C(N)=O)C(C)C)[C@@H](C)O) [calcitonin derivative M11] | 0.017
3 | {C20 diacid-βAsp-AEEA-AEEA}-ASQLSTAVLGRLSEELHRLQDYPRTDVGSGSP-NH2 (SMILES CC(C)C[C@H](NC(=O)[C@H](CCCNC(=N)N)NC(=O)CNC(=O)[C@H](CC(C)C)NC(=O)[C@@H](NC(=O)[C@H](C)NC(=O)[C@@H](NC(=O)[C@H](CO)NC(=O)[C@H](CC(C)C)NC(=O)[C@H](CCC(N)=O)NC(=O)[C@H](CO)NC(=O)[C@H](C)NC(=O)COCCOCCNC(=O)COCCOCCNC(=O)C[C@H](NC(=O)CCCCCCCCCCCCCCCCCCC(=O)O)C(=O)O)[C@@H](C)O)C(C)C)C(=O)N[C@@H](CO)C(=O)N[C@@H](CCC(=O)O)C(=O)N[C@@H](CCC(=O)O)C(=O)N[C@@H](CC(C)C)C(=O)N[C@@H](Cc1c[nH]cn1)C(=O)N[C@@H](CCCNC(=N)N)C(=O)N[C@@H](CC(C)C)C(=O)N[C@@H](CCC(N)=O)C(=O)N[C@@H](CC(=O)O)C(=O)N[C@@H](Cc1ccc(O)cc1)C(=O)N1CCC[C@H]1C(=O)N[C@@H](CCCNC(=N)N)C(=O)N[C@H](C(=O)N[C@@H](CC(=O)O)C(=O)N[C@H](C(=O)NCC(=O)N[C@@H](CO)C(=O)NCC(=O)N[C@@H](CO)C(=O)N1CCC[C@H]1C(N)=O)C(C)C)[C@@H](C)O) [calcitonin derivative M59] | 0.017
4 | {C20 diacid-γGlu}-VSQLSTVVLGRLSQELHRLQDYPRTDVGSGSP-NH2 (SMILES CC(C)C[C@H](NC(=O)[C@H](CCCNC(=N)N)NC(=O)CNC(=O)[C@H](CC(C)C)NC(=O)[C@@H](NC(=O)[C@@H](NC(=O)[C@@H](NC(=O)[C@H](CO)NC(=O)[C@H](CC(C)C)NC(=O)[C@H](CCC(N)=O)NC(=O)[C@H](CO)NC(=O)[C@@H](NC(=O)CC[C@H](NC(=O)CCCCCCCCCCCCCCCCCCC(=O)O)C(=O)O)C(C)C)[C@@H](C)O)C(C)C)C(C)C)C(=O)N[C@@H](CO)C(=O)N[C@@H](CCC(N)=O)C(=O)N[C@@H](CCC(=O)O)C(=O)N[C@@H](CC(C)C)C(=O)N[C@@H](Cc1c[nH]cn1)C(=O)N[C@@H](CCCNC(=N)N)C(=O)N[C@@H](CC(C)C)C(=O)N[C@@H](CCC(N)=O)C(=O)N[C@@H](CC(=O)O)C(=O)N[C@@H](Cc1ccc(O)cc1)C(=O)N1CCC[C@H]1C(=O)N[C@@H](CCCNC(=N)N)C(=O)N[C@H](C(=O)N[C@@H](CC(=O)O)C(=O)N[C@H](C(=O)NCC(=O)N[C@@H](CO)C(=O)NCC(=O)N[C@@H](CO)C(=O)N1CCC[C@H]1C(N)=O)C(C)C)[C@@H](C)O) [calcitonin derivative M26] | 0.079
5 | {C18 diacid}-EASQLSTAVLGRLSDELHRLQDYPRTDVGSGSP-NH2 (SMILES CC(C)C[C@H](NC(=O)[C@H](CCCNC(=N)N)NC(=O)CNC(=O)[C@H](CC(C)C)NC(=O)[C@@H](NC(=O)[C@H](C)NC(=O)[C@@H](NC(=O)[C@H](CO)NC(=O)[C@H](CC(C)C)NC(=O)[C@H](CCC(N)=O)NC(=O)[C@H](CO)NC(=O)[C@H](C)NC(=O)[C@H](CCC(=O)O)NC(=O)CCCCCCCCCCCCCCCCC(=O)O)[C@@H](C)O)C(C)C)C(=O)N[C@@H](CO)C(=O)N[C@@H](CC(=O)O)C(=O)N[C@@H](CCC(=O)O)C(=O)N[C@@H](CC(C)C)C(=O)N[C@@H](Cc1c[nH]cn1)C(=O)N[C@@H](CCCNC(=N)N)C(=O)N[C@@H](CC(C)C)C(=O)N[C@@H](CCC(N)=O)C(=O)N[C@@H](CC(=O)O)C(=O)N[C@@H](Cc1ccc(O)cc1)C(=O)N1CCC[C@H]1C(=O)N[C@@H](CCCNC(=N)N)C(=O)N[C@H](C(=O)N[C@@H](CC(=O)O)C(=O)N[C@H](C(=O)NCC(=O)N[C@@H](CO)C(=O)NCC(=O)N[C@@H](CO)C(=O)N1CCC[C@H]1C(N)=O)C(C)C)[C@@H](C)O) [calcitonin derivative M42] | 0.016
6 | {C20 diacid}-E[AEEA][AEEA]ASQLSTAVLGRLSEELHRLQDYPRTDVGSGSP-NH2 (SMILES CC(C)C[C@H](NC(=O)[C@H](CCCNC(=N)N)NC(=O)CNC(=O)[C@H](CC(C)C)NC(=O)[C@@H](NC(=O)[C@H](C)NC(=O)[C@@H](NC(=O)[C@H](CO)NC(=O)[C@H](CC(C)C)NC(=O)[C@H](CCC(N)=O)NC(=O)[C@H](CO)NC(=O)[C@H](C)NC(=O)COCCOCCNC(=O)COCCOCCNC(=O)[C@H](CCC(=O)O)NC(=O)CCCCCCCCCCCCCCCCCCC(=O)O)[C@@H](C)O)C(C)C)C(=O)N[C@@H](CO)C(=O)N[C@@H](CCC(=O)O)C(=O)N[C@@H](CCC(=O)O)C(=O)N[C@@H](CC(C)C)C(=O)N[C@@H](Cc1c[nH]cn1)C(=O)N[C@@H](CCCNC(=N)N)C(=O)N[C@@H](CC(C)C)C(=O)N[C@@H](CCC(N)=O)C(=O)N[C@@H](CC(=O)O)C(=O)N[C@@H](Cc1ccc(O)cc1)C(=O)N1CCC[C@H]1C(=O)N[C@@H](CCCNC(=N)N)C(=O)N[C@H](C(=O)N[C@@H](CC(=O)O)C(=O)N[C@H](C(=O)NCC(=O)N[C@@H](CO)C(=O)NCC(=O)N[C@@H](CO)C(=O)N1CCC[C@H]1C(N)=O)C(C)C)[C@@H](C)O) [calcitonin derivative M58] | 0.017
7 | {C20 diacid-γGlu}-KSQLSTEVLGRLSQELHRLQDYPRTDVGSGSP-NH2 (SMILES CC(C)C[C@H](NC(=O)[C@H](CCCNC(=N)N)NC(=O)CNC(=O)[C@H](CC(C)C)NC(=O)[C@@H](NC(=O)[C@H](CCC(=O)O)NC(=O)[C@@H](NC(=O)[C@H](CO)NC(=O)[C@H](CC(C)C)NC(=O)[C@H](CCC(N)=O)NC(=O)[C@H](CO)NC(=O)[C@H](CCCCN)NC(=O)CC[C@H](NC(=O)CCCCCCCCCCCCCCCCCCC(=O)O)C(=O)O)[C@@H](C)O)C(C)C)C(=O)N[C@@H](CO)C(=O)N[C@@H](CCC(N)=O)C(=O)N[C@@H](CCC(=O)O)C(=O)N[C@@H](CC(C)C)C(=O)N[C@@H](Cc1c[nH]cn1)C(=O)N[C@@H](CCCNC(=N)N)C(=O)N[C@@H](CC(C)C)C(=O)N[C@@H](CCC(N)=O)C(=O)N[C@@H](CC(=O)O)C(=O)N[C@@H](Cc1ccc(O)cc1)C(=O)N1CCC[C@H]1C(=O)N[C@@H](CCCNC(=N)N)C(=O)N[C@H](C(=O)N[C@@H](CC(=O)O)C(=O)N[C@H](C(=O)NCC(=O)N[C@@H](CO)C(=O)NCC(=O)N[C@@H](CO)C(=O)N1CCC[C@H]1C(N)=O)C(C)C)[C@@H](C)O) [calcitonin derivative M36] | 0.032
